Source: article PMC6032885

Biological target: TbAlsin (T. brucei)
Experiment: co-IP; equal volumes (10 uL each) of in vitro translated 35S-Met-labelled HA-tagged TbVps9 protein (bait) and TbRab (prey) mixed, 1 h at room temperature; anti-HA polyclonal antibody and protein A beads; 7 washes with 50 mM Tris pH 7.5, 150 mM NaCl, 10 mM EDTA, 0.1% Triton X-100, 10 mM MgCl2; SDS-PAGE and autoradiography

In the case of TbRab5A^SN (natural protein), the percent of TbAlsin bound was 50%.
